The text below walks through data of the RNAGym collection of RNA variant scans (doi:10.1093/molbev/msab373).

B1: Azoarcus group I ribozyme (parent)
chain: GUGCCUUGCGCCGGGAAACCACGCAAGGGAUGGUGUCAAAUUCGGCGAAACCUAAGCGCCCGCCCGGGCGUAUGGCAACGCCGAGCCAAGCUUCGGCGCCUGCGCCGAUGAAGGUGUAGAGACUAGACGGCACCCACCUAAGGCAAACGCUAUGGUGAAGGCAUAGUCCAGGGAGUGGCGAAAGUCACACAAACCGG

This series covers variants of B1. The series can be described thus: reverse-splicing fitness (ratio to wild type); higher = more active; in vitro selection; Mg2+ level not given. An outline of the steps:
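An in vitro group I ribozyme library with randomized positions was T7-transcribed and gel-purified. In triplicate, 10 pmol RNA in EPPS pH 7.5 was reacted with 50 pmoles of a 30-nt RNA substrate for 1 h at 37 °C across several added MgCl2 levels (1–48 mM), then stopped with EDTA. Products were reverse transcribed from a substrate-complementary primer, PCR-amplified and sequenced (HiSeq 4000). Fitness is a variant's read proportion after selection over that before, normalised to wild type.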
As for A111G A145G C150G C169U U176G, the reverse-splicing fitness came to 0.00609.

C82A A111U A120G A145U C150G C169A U176G: the reverse-splicing fitness came out at 0.00552.

For the variant C82U A111G A120C A145U C150U C169G U176G, the reverse-splicing fitness turned out to be 0.00414.

Consider C82U A111G A120C A145U C150U C169G U176A, for which the reverse-splicing fitness was found to be 0.0133.

As to C82U A111C A145G C150G C169G, the reverse-splicing fitness turned out to be 0.00689.

In the case of C82U A111G A120U C150A C169U U176A, the reverse-splicing fitness is 0.00577.

For C82A A111U A145C C150G C169G U176A, the reverse-splicing fitness was 0.00985.

With C82A A111C A120G C150G C169G, the reverse-splicing fitness stood at 0.00748.

A111U A145U C150A C169U U176C: the reverse-splicing fitness worked out at 0.0162.

On to C82G A111U C150A C169A U176A, for which the reverse-splicing fitness turned out to be 0.0193.

As for A111U A120G A145C C150U U176G, the reverse-splicing fitness came to 0.00458.

Turning to C82U A111U A120U C150U C169G U176G, the reverse-splicing fitness stood at 0.00205.

Take A120U U176A: the reverse-splicing fitness stood at 0.66.

Take C82G A111U A120C C150A C169U U176C: the reverse-splicing fitness was determined as 0.0159.

As for A111U A120C C150G C169G U176G, the reverse-splicing fitness was 0.00508.

C82U A111C A120U A145U C150G C169G U176C: the reverse-splicing fitness is 0.00224.

As to A111U A120U A145U C150U C169U U176G, the reverse-splicing fitness was 0.00253.

For C82G A120C A145U C150A C169U U176A, the reverse-splicing fitness came out at 0.0151.

As to C82A A111G C150A C169U, the reverse-splicing fitness is 0.0114.

On to C82G A111U C150U C169U U176C, for which the reverse-splicing fitness amounted to 0.013.

Take C82G A111C A120U C150U C169U U176A: the reverse-splicing fitness is 0.00688.

As to C82U A120G A145U C169A, the reverse-splicing fitness is 0.017.

For the variant A111U A120G, the reverse-splicing fitness was determined as 0.174.

For the variant A111U A145C, the reverse-splicing fitness was determined as 0.974.

Take A120C A145C C150A C169U U176G: the reverse-splicing fitness was found to be 0.00561.

Turning to C82U A111G A120U A145U C150G C169A U176C, the reverse-splicing fitness worked out at 0.00216.

As for A120U C150G C169A U176A, the reverse-splicing fitness is 0.00468.

Take C82U A111U A145C C150G C169G U176A: the reverse-splicing fitness was 0.00901.

Turning to C82G A111G A120G A145C C169U U176A, the reverse-splicing fitness worked out at 0.0179.

With C82U A120C C150U C169U U176G, the reverse-splicing fitness is 0.00448.

In the case of C82G A120C A145G C169U U176G, the reverse-splicing fitness is 0.00453.

C82A A111U A120G A145U C150U C169A: the reverse-splicing fitness was 0.0101.

Consider C82U A111G A120C C169U U176C, for which the reverse-splicing fitness came out at 0.014.

With C82U A111G A120C C169U U176A, the reverse-splicing fitness is 0.0149.

Turning to C82U A111C A120G C150U C169U U176G, the reverse-splicing fitness was 0.00513.

With C82G A120C A145U C150U C169G U176G, the reverse-splicing fitness was determined as 0.0044.

Consider C82G A111U A120U A145C C150U U176C, for which the reverse-splicing fitness came to 0.00545.

As to C82G A111G A120C C150G U176A, the reverse-splicing fitness turned out to be 0.00594.

Turning to C82U A120G C150U C169A U176G, the reverse-splicing fitness came to 0.00423.

In the case of C82G A111U A120G A145G C150A C169G U176G, the reverse-splicing fitness turned out to be 0.0053.

As to C82G A120C A145C C150G C169A, the reverse-splicing fitness came out at 0.00926.

C82U A120U A145U C150G C169A U176C: the reverse-splicing fitness stood at 0.00203.

For A111U A120U A145U C150U U176G, the reverse-splicing fitness is 0.0292.

Take C82U A111U A120C A145U C150G C169G U176A: the reverse-splicing fitness was 0.00657.

In the case of C82U A111C A120U A145U C150G C169A U176G, the reverse-splicing fitness was determined as 0.00233.

As for A111C A120C A145G C169A U176G, the reverse-splicing fitness came out at 0.0054.

C82U A145C C150U C169U U176A: the reverse-splicing fitness was 0.0121.

For C82A A111G A120C A145U C150U C169A, the reverse-splicing fitness came to 0.0102.

A111U A120C A145C C150U C169A: the reverse-splicing fitness stood at 0.00788.

Regarding A111U A120C A145C C150A U176G, the reverse-splicing fitness worked out at 0.00877.

In the case of C82G A111G A120G A145G U176A, the reverse-splicing fitness was 0.0129.

As to C82G A111U A120U A145C C150A C169G, the reverse-splicing fitness was 0.00272.

As for C82A A111U A120U A145U C169U U176C, the reverse-splicing fitness came out at 0.00325.

On to C82G A111U A145G C150U C169U U176A, for which the reverse-splicing fitness was determined as 0.0152.

Consider C82A A120C A145G, for which the reverse-splicing fitness stood at 0.136.

Take C82A A111G A120G A145G C150U C169G U176G: the reverse-splicing fitness came out at 0.00529.

With C82A A111U A120C C150G C169G U176A, the reverse-splicing fitness stood at 0.00746.

Take C82A A111U A145C C150U C169U U176C: the reverse-splicing fitness is 0.00945.

As for C82U A111G A120G A145U C169G U176G, the reverse-splicing fitness came to 0.00372.

On to C82G A111C A120C A145C C150A C169U U176G, for which the reverse-splicing fitness came to 0.00799.

Consider C82G A111C A145G C150U C169G U176A, for which the reverse-splicing fitness worked out at 0.0107.

Take C82U A111G A145C C169A: the reverse-splicing fitness turned out to be 0.00618.

Take C82G A145C C150G C169G U176G: the reverse-splicing fitness came to 0.0054.

Regarding C82U A111G A120U A145U C150A U176A, the reverse-splicing fitness turned out to be 0.00427.

Regarding C82U A111G A120U A145U C150A U176G, the reverse-splicing fitness amounted to 0.00212.

C82A A145G C150U: the reverse-splicing fitness stood at 0.544.

As to C82A A111G A120U U176G, the reverse-splicing fitness was 0.00504.

As to C82G A120U A145G C150G C169G U176G, the reverse-splicing fitness was found to be 0.00411.

Consider C82A A111U A120G C169U U176C, for which the reverse-splicing fitness worked out at 0.0195.

As for C82U A120G A145U C150U C169A, the reverse-splicing fitness was determined as 0.014.

For the variant C82G A111U A120G A145C C150G C169A, the reverse-splicing fitness worked out at 0.00877.

In the case of C82U A120C A145U C150A C169G U176G, the reverse-splicing fitness came to 0.00397.

In the case of C82G A111C A120U A145G C150G C169A U176A, the reverse-splicing fitness was 0.0121.

Turning to A120U A145G C169G U176A, the reverse-splicing fitness turned out to be 0.0414.

C82G A111G A120U A145C C150U C169U U176A: the reverse-splicing fitness was 0.00258.

In the case of C82G A120U A145C C150U U176A, the reverse-splicing fitness turned out to be 0.0158.

As to C82U A111C A120U C169A U176C, the reverse-splicing fitness is 0.00352.

For the variant C82G A111U A120C A145G C169A U176G, the reverse-splicing fitness is 0.00615.

Take C82G A145U C169G: the reverse-splicing fitness came out at 0.0104.

As for C82U A111C A120C A145G C169U U176C, the reverse-splicing fitness came to 0.0159.

Regarding C82A A111U A120G A145C C150U C169G U176C, the reverse-splicing fitness worked out at 0.0134.

As for C82G A111C C150G C169G U176A, the reverse-splicing fitness was 0.00734.

C82G A111G A120U A145U C150U C169A U176C: the reverse-splicing fitness was 0.00239.

For the variant C82U A111U C150U C169A U176C, the reverse-splicing fitness is 0.0125.
